Test results: paper PMC9820253, “Integration Host Factor Binds DNA Holliday Junctions”
Substitutions are numbered along the chain they refer to.

Assays:
[1] = molecular target: T1, Integration Host Factor (IHF) (Escherichia coli (purified from E. coli …, UniProt P0A6X7;P0A6Y1 1-99;1-94)); assay: EMSA; 70 mM KCl, no Mg2+; 5 mM Tris-HCl pH 7.4-7.6, 70 mM KCl, 0.1 mM EDTA, 0.5-10% ethylene glycol, fluorescence at 10 C; Mg buffer: 5 mM Tris-HCl pH 7.4, 1 mM MgCl2, 10% ethylene glycol; stopped flow 20 C with 0.01% NP-40; conditions: protein: recombinant; copies: 1;1; label: none for EMSA (SYBR Green); immobile four-way junction of 4 strands (34 nt), four 17 bp arms
[2] = molecular target: T1, Integration Host Factor (IHF); assay: fluorescence intensity; 70 mM KCl; 0.5 nM DNA; printed as <=2.2; 5 mM Tris-HCl pH 7.4-7.6, 70 mM KCl, 0.1 mM EDTA, 0.5-10% ethylene glycol, fluorescence at 10 C; Mg buffer: 5 mM Tris-HCl pH 7.4, 1 mM MgCl2, 10% ethylene glycol; stopped flow 20 C with 0.01% NP-40; conditions: protein: recombinant; copies: 1;1; label: 6-MI; immobile four-way junction of 4 strands (34 nt), four 17 bp arms
[3] = molecular target: T1, Integration Host Factor (IHF); assay: fluorescence anisotropy; 70 mM KCl; 2 nM DNA; 5 mM Tris-HCl pH 7.4-7.6, 70 mM KCl, 0.1 mM EDTA, 0.5-10% ethylene glycol, fluorescence at 10 C; Mg buffer: 5 mM Tris-HCl pH 7.4, 1 mM MgCl2, 10% ethylene glycol; stopped flow 20 C with 0.01% NP-40; conditions: protein: recombinant; copies: 1;1; label: fluorescein (end); immobile four-way junction of 4 strands (34 nt), four 17 bp arms
[4] = molecular target: T1, Integration Host Factor (IHF); assay: EMSA; 70 mM KCl; apparent; 5 mM Tris-HCl pH 7.4-7.6, 70 mM KCl, 0.1 mM EDTA, 0.5-10% ethylene glycol, fluorescence at 10 C; Mg buffer: 5 mM Tris-HCl pH 7.4, 1 mM MgCl2, 10% ethylene glycol; stopped flow 20 C with 0.01% NP-40; conditions: protein: recombinant, copies: 1;1, label: none for EMSA (SYBR Green)
[5] = molecular target: T1, Integration Host Factor (IHF); assay: fluorescence intensity; 70 mM KCl; end-labeled; 5 mM Tris-HCl pH 7.4-7.6, 70 mM KCl, 0.1 mM EDTA, 0.5-10% ethylene glycol, fluorescence at 10 C; Mg buffer: 5 mM Tris-HCl pH 7.4, 1 mM MgCl2, 10% ethylene glycol; stopped flow 20 C with 0.01% NP-40; conditions: protein: recombinant, copies: 1;1, label: none for EMSA (SYBR Green), immobile four-way junction of 4 strands, four 17 bp arms
[6] = molecular target: T1, Integration Host Factor (IHF); assay: EMSA; 1 mM Mg2+; apparent; 5 mM Tris-HCl pH 7.4-7.6, 70 mM KCl, 0.1 mM EDTA, 0.5-10% ethylene glycol, fluorescence at 10 C; Mg buffer: 5 mM Tris-HCl pH 7.4, 1 mM MgCl2, 10% ethylene glycol; stopped flow 20 C with 0.01% NP-40; conditions: protein: recombinant; copies: 1;1; label: none for EMSA (SYBR Green); 5' TAMRA for fluorescence intensity; donor-acceptor pair for stopped flow; four-way junction of 4 strands (20 nt), four 10 bp arms
[7] = molecular target: T1, Integration Host Factor (IHF); assay: fluorescence anisotropy; 1 mM Mg2+?; 5 mM Tris-HCl pH 7.4-7.6, 70 mM KCl, 0.1 mM EDTA, 0.5-10% ethylene glycol, fluorescence at 10 C; Mg buffer: 5 mM Tris-HCl pH 7.4, 1 mM MgCl2, 10% ethylene glycol; stopped flow 20 C with 0.01% NP-40; conditions: protein: recombinant; copies: 1;1; label: none for EMSA (SYBR Green); 5' TAMRA for fluorescence intensity; donor-acceptor pair for stopped flow; four-way junction of 4 strands (20 nt), four 10 bp arms
[8] = molecular target: T1, Integration Host Factor (IHF); assay: fluorescence intensity; 70 mM KCl; 5'-TAMRA; 5 mM Tris-HCl pH 7.4-7.6, 70 mM KCl, 0.1 mM EDTA, 0.5-10% ethylene glycol, fluorescence at 10 C; Mg buffer: 5 mM Tris-HCl pH 7.4, 1 mM MgCl2, 10% ethylene glycol; stopped flow 20 C with 0.01% NP-40; conditions: protein: recombinant; copies: 1;1; label: none for EMSA (SYBR Green); 5' TAMRA for fluorescence intensity; donor-acceptor pair for stopped flow; four-way junction of 4 strands (20 nt), four 10 bp arms

T1 sequence (P0A6X7 whole entry, chain 1 of 2): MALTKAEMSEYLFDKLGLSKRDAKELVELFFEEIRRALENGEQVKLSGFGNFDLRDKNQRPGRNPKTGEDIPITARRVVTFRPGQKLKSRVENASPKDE
T1 sequence (P0A6Y1 whole entry, chain 2 of 2): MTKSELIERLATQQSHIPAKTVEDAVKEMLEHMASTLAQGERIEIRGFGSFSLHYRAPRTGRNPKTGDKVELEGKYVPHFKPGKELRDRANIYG

B1: J34 junction (structured_DNA)
DNA 1: CCTTCAACCACCGCTCAACTCAACTGCAGTCTGG
DNA 2: CCAGACTGCAGTTGAGTCCTTGCTAGGACGGAGG
DNA 3: CCTCCGTCCTAGCAAGGGGCTGCTACCGGAAGGG
DNA 4: CCCTTCCGGTAGCAGCCTGAGCGGTGGTTGAAGG
Kd [1]: 58 ± 36 nM

B2: J34 junction, 6-MI labeled (structured_DNA)
DNA 1: B1 DNA 1
DNA 2: B1 DNA 2
DNA 3: B1 DNA 3
DNA 4: B1 DNA 4
modifications: 6-methylisoxanthopterin (6-MI) nucleoside
Kd [2]: < 2.2 nM

B3: J34 junction, fluorescein end-labeled (structured_DNA)
DNA 1: B1 DNA 1
DNA 2: B1 DNA 2
DNA 3: B1 DNA 3
DNA 4: B1 DNA 4
Kd [3]: 2 nM

B4: JH1 junction (structured_DNA)
DNA 1: CCTTCAACCACCGCTCATGATTACTGCAGTCTGG
DNA 2: CCAGACTGCAGTAATCAACTACTTAGGACGGAGG
DNA 3: B1 DNA 3 with G12A, C13G, A14T, G17T
DNA 4: B1 DNA 4 with C22T
Kd ([4]; end label for fluorescence, immobile four-way junction of 4 strands, four 17 bp arms): 65 ± 8 nM | Kd [5]: 9.2 ± 2 nM

B5: J20 junction (structured_DNA)
DNA 1: CCACCGCTCAACTCAACTGC
DNA 2: GCAGTTGAGTCCTTGCTAGG
DNA 3: CCTAGCAAGGGGCTGCTACC
DNA 4: GGTAGCAGCCTGAGCGGTGG
Kd [6]: 514 ± 141 nM | Kd ([4]; 5' TAMRA for fluorescence intensity, donor-acceptor pair for stopped flow, four-way junction of 4 strands (20 nt), four 10 bp arms): 170 ± 40 nM | Kd [7]: 43 ± 11 nM | Kd [8]: 4.4 ± 0.5 nM
